As usually defined, the EC50 is the midpoint of the concentration-response curve. The Kd is the equilibrium constant for the complex coming apart. A low value points to tighter binding. Broadly, the koff is the rate constant with which the complex falls apart. Read a high koff as a short-lived complex. What is called kon is a measure of how fast the partners come together. Lower therefore signals slower complex formation.

For test [1], the target named is T1, mouse CD40 (mouse, UniProt P27512 20-193, limits assumed).
T1 construct: also called murine CD40
T1 sequence (looked up): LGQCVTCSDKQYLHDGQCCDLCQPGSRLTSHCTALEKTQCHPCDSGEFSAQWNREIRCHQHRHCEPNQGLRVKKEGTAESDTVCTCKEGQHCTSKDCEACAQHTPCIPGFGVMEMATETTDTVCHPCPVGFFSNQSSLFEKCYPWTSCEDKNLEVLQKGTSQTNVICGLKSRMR
The test is described as follows: CD40 binding, format not stated.

The target of test [2] is T2, MSLN (binding assays of Example 4, Table 4-2) (Homo sapiens (Human), UniProt Q13421 296-598).
T2 construct: also called mesothelin
The test is described as follows: antigen binding, format not stated.

In test [3] the target is T3, human mesothelin (human, UniProt Q13421 296-580, limits assumed).
T3 construct: also called Human MSLN
Briefly: SPR. A general note: In SPR one partner is held on a chip, and binding of the other changes the refractive index at the surface.

Test [4] has as its target T4, cynomolgus mesothelin (cynomolgus).
T4 construct: also called cynoMSLN; Cyno MSLN
Briefly: SPR.

The target of test [5] is T5, mesothelin on cells (endogenous on SN12C, OVCAR3, SW1990); HEK293 cells expressing cell-surface human … (human, UniProt Q13421 296-598).
T5 construct: whole, on cells; also called cell-surface MSLN
The test is described as follows: FACS, SN12C (CA125-). How it is done: (§1) The binding of anti-mesothelin affinity matured variants was measured by FACS on the ovarian cancer cell line OVCAR3, the pancreatic cancer cell line SW1990, and the renal cancer cell line SN12C. Both OVCAR3 and SW1990 express CA125, but CA125 expression on SN12C cells was not detected.
For orientation: A flow cytometer gives signals particle by particle.

For test [6], the target named is T5, mesothelin on cells (endogenous on …). The test is described as follows: FACS, OVCAR3 (CA125+). On the procedure: as §1
In test [7] the target is CD40 (binding assays of Example 4, Table 4-2). The test is described as follows: antigen binding, format not stated.
Test [8] concerns the target T6, soluble form of the extracellular domain of human CD40 (Creative BioMart) (human, UniProt P25942 21-193).
T6 construct: Bought
The test is described as follows: SPR.

The target of test [9] is T3, human mesothelin. Briefly: SPR. This is another data set of the same source.
For test [10], the target named is T7, soluble form of the extracellular domain of cynomolgus (cyno) CD40 (Creative BioMart) (cynomolgus, UniProt G7PG38 21-193).
T7 construct: extracellular domain; also called Cynomolgus CD40
Briefly: SPR.

The target in test [11] is T4, cynomolgus mesothelin. The test is described as follows: SPR. This is another data set of the same source.
The target of test [12] is T8, human CD40 on cells (HEK293 stable transfectants, HEK-Blue CD40 cells, human B cells, monocytic cells, … (human, UniProt P25942 21-277)). Briefly: cell-based or functional assay.
Test [13] deals with T6, soluble form of the extracellular …. Briefly: SPR. The source holds these as a separate data set.
The target in test [14] is T7, soluble form of the extracellular …. The test is described as follows: SPR. The source holds these as a separate data set.
Test [15] has as its target T3, human mesothelin. The test is described as follows: SPR. The source holds these as a separate data set.
In test [16] the target is T4, cynomolgus mesothelin. The test is described as follows: SPR. The source holds these as a separate data set.
Test [17] addresses T8, human CD40 on cells (HEK293 stable …). Briefly: CD40 occupancy on B cells, -MSLN (n = 3).
Test [18] shares this target. The test is described as follows: cell-based or functional assay. The source holds these as a separate data set.
Test [19] shares this target. Briefly: cell-based or functional assay. This is another data set of the same source.
For test [20], the target named is T6, soluble form of the extracellular …. Briefly: SPR, Ab captured. On the procedure:
(§2) CD40 binding kinetics was analyzed by surface plasmon resonance assay with a Biacore T200 instrument (Table 1-5). Briefly, a goat anti-mouse Fc antibody (Pierce) or goat anti-human Fc (Pierce) was immobilized on a CM5 sensor chip, followed by capture of the anti-CD40 antibodies on the test surface. Subsequently, the soluble form of the extracellular domain of human CD40 (Creative BioMart) or cynomolgus (cyno) CD40 (Creative BioMart) was injected, and the binding and dissociation were measured.

The target of test [21] is T7, soluble form of the extracellular …. The test is described as follows: SPR, Ab captured. How it is done:
as §2

Test [22] has as its target T1, mouse CD40. The test is described as follows: FACS.
The target in another test is T9, dog CD40 (dog, UniProt Q7YRL5 21-194, limits assumed).
T9 sequence (looked up): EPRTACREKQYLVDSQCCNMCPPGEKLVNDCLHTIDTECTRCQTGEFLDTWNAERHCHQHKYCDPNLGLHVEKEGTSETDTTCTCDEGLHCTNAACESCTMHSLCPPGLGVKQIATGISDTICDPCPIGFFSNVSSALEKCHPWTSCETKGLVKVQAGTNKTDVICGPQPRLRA
Briefly: FACS.

Where two headings read alike, the source gives them in different places. Some results are limits rather than exact numbers.

T3 sequence (Q13421 other isoform, or with tags, fused parts or gaps limits assumed): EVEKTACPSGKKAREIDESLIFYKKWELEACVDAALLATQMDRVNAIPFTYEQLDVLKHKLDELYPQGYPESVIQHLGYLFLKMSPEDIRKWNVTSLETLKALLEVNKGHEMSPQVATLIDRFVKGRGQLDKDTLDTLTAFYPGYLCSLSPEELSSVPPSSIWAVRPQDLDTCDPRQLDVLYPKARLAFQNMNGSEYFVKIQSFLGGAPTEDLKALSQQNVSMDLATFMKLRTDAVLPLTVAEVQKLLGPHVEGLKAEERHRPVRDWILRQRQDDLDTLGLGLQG
T5 sequence (Q13421 other isoform, or with tags, fused parts or gaps limits assumed): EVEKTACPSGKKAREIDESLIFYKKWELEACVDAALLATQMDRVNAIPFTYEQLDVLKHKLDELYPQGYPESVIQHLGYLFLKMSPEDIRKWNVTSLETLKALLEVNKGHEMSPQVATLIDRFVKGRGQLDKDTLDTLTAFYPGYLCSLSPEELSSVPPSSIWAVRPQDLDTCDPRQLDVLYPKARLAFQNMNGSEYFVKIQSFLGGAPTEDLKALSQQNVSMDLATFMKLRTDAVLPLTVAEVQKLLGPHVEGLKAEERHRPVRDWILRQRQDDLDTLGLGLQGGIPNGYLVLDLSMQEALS
T6 sequence (P25942 21-193 limits assumed): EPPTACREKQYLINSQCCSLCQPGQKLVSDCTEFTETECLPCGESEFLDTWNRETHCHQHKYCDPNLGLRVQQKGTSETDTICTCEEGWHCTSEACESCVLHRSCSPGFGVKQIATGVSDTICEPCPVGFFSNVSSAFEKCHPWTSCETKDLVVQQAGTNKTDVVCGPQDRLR
T8 sequence (P25942 21-277 limits assumed): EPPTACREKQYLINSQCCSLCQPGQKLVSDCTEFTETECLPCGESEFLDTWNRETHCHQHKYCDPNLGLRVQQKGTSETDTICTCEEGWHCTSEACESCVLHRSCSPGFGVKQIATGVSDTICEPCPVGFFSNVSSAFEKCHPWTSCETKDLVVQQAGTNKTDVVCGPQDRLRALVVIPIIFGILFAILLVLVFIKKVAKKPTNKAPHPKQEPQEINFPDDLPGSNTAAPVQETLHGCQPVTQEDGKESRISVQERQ
Chain of CD40 (binding assays of Example 4, Table 4-2) (P25942 21-277): as the sequence (P25942 21-277 limits assumed) above

B1: anti-CD40 antibody (1C10 mIgG1) (antibody, V domains shown)
VH: EVQLVESGGGLVQPGRSLKLSCAASGFTFSNYDMAWVRQAPTKGLEWVASISPSGGRTYYRDSVKGRFTVSRDNAKSTLYLQMDSLRSEDTATYYCARHDGSYFDYWGQGVMVTVSS
VL: DTVLTQSPALAVSPGERVTISCRASESVSTLMHWYQQKPGQQPKLLIYLASHLESGVPARFSGSGSGTDFTLTIDPVEADDTATYYCQESWNDPWTFGGGTKLELK
notes: murine IgG1
B1 had a concentration for a half-maximal effect (EC50) in the test with mouse CD40 [1] of 0.21 µg/mL.

B2: HuAM15 (antibody, V domains shown)
VH: EVQLVQSGAEVKKPGASVKVSCKASGDTFKRYYVHWVRQAPGQGLEWMGIINPSGVSTTYAQKFQGRVTMTRDTSTSTVYMELSSLRSEDTAVYYCAEVRGSGFNYFGMDVWGQGTLVTVSS
VL: SYELTQPPSVSVSPGQTASITCSGDKLGDKYASWYQQKPGQSPVLVIYQDNRRPSGIPERFSGSNSGNTATLTISGTQAMDEADYYCQAWDSDTYVFGTGTKVTVL
notes: fully human antibody
Regarding B2, it took 0.9 µg/mL to reach a half-maximal effect in test [2] (EC50). Besides, in the test with human mesothelin [3], binding was put at a Kd of 0.31 nM, the koff was 1.3e-05 s⁻¹ and the on-rate (kon) was determined as 44000 M⁻¹ s⁻¹. Moreover, in the test with cynomolgus mesothelin [4], binding was put at a Kd of 4.5 nM, the koff was 0.00018 s⁻¹ and the on-rate constant (kon) came to 40000 M⁻¹ s⁻¹. In test [5], the EC50 amounted to 0.07 µg/mL and the “Maximum binding (MFI)” value turned out to be 9390 MFI. Further, in [6], the EC50 is 0.7 µg/mL and the “Maximum binding (MFI)” value worked out at 3550 MFI.

B3: B39 (bispecific antibody, IgG2)
chain: EVQLQESGPGLVKPSETLSLTCTVSGYSITSNYYWNWIRQPPGKGLEWMGYIRYDGSNNYNPSLKNRVTISRDTSKNQFSLKLSSVTAADTAVYYCARLDYWGQGTTVTVSSDLSGGGGSGGGGSGGGGSGGGGSTGDAVMTQTPLSLSVTPGQPASISCRSSQSLENTNGNTFLNWYLQKPGQSPQLLIYRVSNRFSGVPDRFSGSGSGTDFTLKISRVEAEDVGVYYCLQVTHVPFTFGQGTKLEIKRVERKSSVECPPCPAPPVAGPSVFLFPPKPKDTLMISRTPEVTCVVVDVSHEDPEVQFNWYVDGVEVHNAKTKPREEQFNSTFRVVSVLTVVHQDWLNGKEYKCKVSNKGLPAPIEKTISKTKGQPREPQVYTLPPSREEMTKNQVSLTCLVKGFYPSDIAVEWESNGQPENNYKTTPPMLDSDGSFFLYSKLTVDKSRWQQGNVFSCSVMHEALHNHYTQKSLSLSPGKVDGASSPVNVSSPSVQDIEVQLVQSGAEVKKPGASVKVSCKASGDTFKRYYVHWVRQAPGQGLEWMGIINPSGVSTTYAQKFQGRVTMTRDTSTSTVYMELSSLRSEDTAVYYCAEVRGSGFNYFGMDVWGQGTLVTVSSDLSGGGGSGGGGSGGGGSGGGGSTGSYELTQPPSVSVSPGQTASITCSGDKLGDKYASWYQQKPGQSPVLVIYQDNRRPSGIPERFSGSNSGNTATLTISGTQAMDEADYYCQAWDSDTYVFGTGTKVTVLGQ
notes: scFv-Fc-scFv, huIgG2
For B3, the EC50 in test [7] was 0.5 µg/mL; in test [2], 7.4 µg/mL.

B4: CF3 (bispecific antibody, human IgG1, lambda)
heavy: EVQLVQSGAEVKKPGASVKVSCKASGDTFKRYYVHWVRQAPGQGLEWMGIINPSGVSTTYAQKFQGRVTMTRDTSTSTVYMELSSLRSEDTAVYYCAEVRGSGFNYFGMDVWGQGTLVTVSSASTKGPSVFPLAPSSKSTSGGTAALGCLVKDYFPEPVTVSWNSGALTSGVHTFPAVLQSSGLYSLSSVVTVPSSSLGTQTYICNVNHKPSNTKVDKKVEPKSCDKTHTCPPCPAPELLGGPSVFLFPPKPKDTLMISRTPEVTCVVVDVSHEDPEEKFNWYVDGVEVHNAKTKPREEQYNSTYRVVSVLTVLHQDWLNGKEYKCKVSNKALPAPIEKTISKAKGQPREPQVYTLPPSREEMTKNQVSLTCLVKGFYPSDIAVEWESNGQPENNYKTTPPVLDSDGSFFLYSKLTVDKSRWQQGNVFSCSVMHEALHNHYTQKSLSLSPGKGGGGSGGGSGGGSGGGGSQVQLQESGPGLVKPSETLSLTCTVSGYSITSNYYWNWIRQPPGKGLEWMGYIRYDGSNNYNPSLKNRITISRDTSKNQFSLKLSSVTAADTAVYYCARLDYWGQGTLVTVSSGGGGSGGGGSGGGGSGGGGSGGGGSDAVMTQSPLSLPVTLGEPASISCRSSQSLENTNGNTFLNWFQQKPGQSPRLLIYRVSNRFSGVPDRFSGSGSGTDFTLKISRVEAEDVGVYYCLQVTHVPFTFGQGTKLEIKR
light: SYELTQPPSVSVSPGQTASITCSGDKLGDKYASWYQQKPGQSPVLVIYQDNRRPSGIPERFSGSNSGNTATLTISGTQAMDEADYYCQAWDSDTYVFGTGTKVTVLGQPKAAPSVTLFPPSSEELQANKATLVCLISDFYPGAVTVAWKADSSPVKAGVETTTPSKQSNNKYAASSYLSLTPEQWKSHRSYSCQVTHEGSTVEKTVAPTECS
notes: IgG-scFv
On to B4, for which the Kd in [8] is 14 nM; with human mesothelin [9], 0.59 nM; in test [10] it was 8.3 nM; with cynomolgus mesothelin [11], 0.29 nM; in test [13], less than 400 nM; in test [14], less than 150 nM. Moreover, the dissociation constant Kd with human mesothelin [15] was less than 400 nM; with cynomolgus mesothelin [16] it was no more than 0.29 nM. Besides, the koff in test [8] worked out at 0.0096 s⁻¹; with human mesothelin [9], 3.1e-05 s⁻¹; in [10], 0.011 s⁻¹; in the test with cynomolgus mesothelin [11], 8.2e-05 s⁻¹. Moreover, the kon was 690000 M⁻¹ s⁻¹ in [8], 52000 M⁻¹ s⁻¹ with human mesothelin [9], 1.3e+06 M⁻¹ s⁻¹ in test [10] and 280000 M⁻¹ s⁻¹ in the test with cynomolgus mesothelin [11]. In addition, the “Max. IL-12p70, dendritic cells with cell-surface mesothelin” value in test [12] was 75 pg/mL.

B5: huAb9 A2I (antibody, human IgG1, kappa)
heavy: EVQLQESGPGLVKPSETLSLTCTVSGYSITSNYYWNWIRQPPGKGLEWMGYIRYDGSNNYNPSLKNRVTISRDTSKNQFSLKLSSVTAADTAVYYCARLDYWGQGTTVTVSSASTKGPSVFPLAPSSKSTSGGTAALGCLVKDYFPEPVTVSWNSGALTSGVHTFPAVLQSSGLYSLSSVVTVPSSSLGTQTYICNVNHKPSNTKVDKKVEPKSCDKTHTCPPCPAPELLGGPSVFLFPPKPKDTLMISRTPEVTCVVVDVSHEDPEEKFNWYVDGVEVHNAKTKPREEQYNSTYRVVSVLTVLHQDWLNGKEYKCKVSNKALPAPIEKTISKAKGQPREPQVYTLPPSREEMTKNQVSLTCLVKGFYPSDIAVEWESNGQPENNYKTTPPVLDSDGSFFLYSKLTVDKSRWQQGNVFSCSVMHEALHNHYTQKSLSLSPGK
light: DIVMTQTPLSLSVTPGQPASISCRSSQSLENTNGNTFLNWYLQKPGQSPQLLIYRVSNRFSGVPDRFSGSGSGTDFTLKISRVEAEDVGVYYCLQVTHVPFTFGQGTKLEIKRTVAAPSVFIFPPSDEQLKSGTASVVCLLNNFYPREAKVQWKVDNALQSGNSQESVTEQDSKDSTYSLSSTLTLSKADYEKHKVYACEVTHQGLSSPVTKSFNRGEC
notes: human IgG1 V273E
Molecule B5 showed an EC50 in test [17] of 4.1 nM. Further, in test [18], the “B-cell CD23 EC50, +MSLN” value was 2.5 nM; the “B-cell CD23 EC50, -MSLN” value was 1.4 nM; the “B-cell CD86 EC50, +MSLN” value came to 0.7 nM; the “B-cell CD86 EC50, -MSLN” value came to 0.35 nM. In addition, in test [18], the “B-cell proliferation EC50, +MSLN” value came out at 12 nM; the “B-cell proliferation EC50, -MSLN” value came to 4.5 nM; the “moDC CD83 EC50, +MSLN” value amounted to 6.9 nM; the “moDC CD83 EC50, -MSLN” value is 2 nM. Moreover, in [18], the “moDC IL-12p70 EC50, +MSLN” value amounted to 3.4 nM and the “moDC IL-12p70 EC50, -MSLN” value turned out to be 12.4 nM.

B6: huAb9-5 (antibody, human IgG1, kappa)
heavy: not shown
light: DAVMTQTPLSLSVTPGQPASISCRSSQSLENTNGNTFLNWYLQKPGQSPQLLIYRVSNRFSGVPDRFSGSGSGTDFTLKISRVEAEDVGVYYCLQVTHVPFTFGQGTKLEIKRTVAAPSVFIFPPSDEQLKSGTASVVCLLNNFYPREAKVQWKVDNALQSGNSQESVTEQDSKDSTYSLSSTLTLSKADYEKHKVYACEVTHQGLSSPVTKSFNRGEC
notes: human IgG1, kappa
Consider B6, for which, in test [7], a half-maximal response (EC50) required 0.2 µg/mL. The “NF-κB activation EC50, HEK293 CD40 NFκB reporter cells” value in test [19] was determined as 1.13 µg/mL. Moreover, in test [20], the Kd came to 15 nM, the koff was determined as 0.026 s⁻¹ and the kon stood at 1.7e+06 M⁻¹ s⁻¹. In test [21], this molecule displayed a Kd of 13 nM, a koff of 0.024 s⁻¹ and a kon of 1.8e+06 M⁻¹ s⁻¹. Besides, the binding result in the test with mouse CD40 [22] is listed as “no binding”. Further, the binding result with dog CD40 is “no binding”.

B7: huAb8-1 (antibody, human IgG1, V domains shown)
VH: EVQLVQSGAEVKKPGSSVKVSCKASGYTFTDYYINWVRQAPGQGLEWIGWIFPGSGSVYCNEQFKGRATLTVDRSTSTAYMELSSLRSEDTAVYFCASSLGKFAYWGQGTLVTVSS
VL: DIQMTQSPSSLSASVGDRVTITCKASQSVVTAVAWYQQKPGKSPKLLIYSASNRYTGVPSRFSGSGSGTDFTLTISSLQPEDFATYFCQQYSSYPYTFGGGTKVEIK
notes: human IgG1, kappa
On to B7, for which the EC50 in test [7] is 0.4 µg/mL. In addition, the “NF-κB activation EC50, HEK293 CD40 NFκB reporter cells” value in [19] is 0.14 µg/mL. Moreover, the figures for the equilibrium dissociation constant (Kd) in test [20] and in test [21] were 3 nM and 7.1 nM, respectively. The koff in test [20] stood at 0.0023 s⁻¹; in test [21], 0.0071 s⁻¹. Also, the on-rate (kon) in test [20] was 770000 M⁻¹ s⁻¹; in test [21], 1e+06 M⁻¹ s⁻¹. Besides, the binding result in the test with mouse CD40 [22] and with dog CD40 was “no binding” in each case.

The values above are taken from US20180194862A1 (AbbVie / Abbott, published 2018).
